Data published in article PMC8724787.

Legend:
[1] = target: DENV1 strain Hawaii envelope (E) protein on virions (Dengue virus 1 (strain Hawaii)); assay: ELISA; apparent
[2] = target: DENV2 A259C (sE)2, disulfide engineered mutant dimer; assay: BLI (steady state binding)
[3] = target: DENV3 A257C (sE)2, disulfide engineered mutant dimer; assay: BLI (steady state binding)
[4] = target: DENV4 A259C (sE)2, disulfide engineered mutant dimer; assay: BLI (steady state binding)
[5] = target: ZIKV-H/PF/2013 sE protein (aa 1-404); assay: BLI (steady state binding)
[6] = target: DENV2 strain 16681 envelope (E) protein on virions (Dengue virus 2 (strain 16681)); assay: ELISA
[7] = target: DENV3 strain H87 envelope (E) protein on virions (Dengue virus 3 (strain H87)); assay: ELISA
[8] = target: DENV4 strain 1-0093 envelope (E) protein on virions (Dengue virus 4 (strain 1-0093)); assay: ELISA
[9] = target: DENV1-FGA/89 sE protein (aa 1-395) (Dengue virus 1 (strain FGA/89)); assay: crystal structure
[10] = target: DENV1-FGA/89 sE protein (aa 1-395) (Dengue virus 1 (strain FGA/89)); assay: crystal structure; unbound sE
[11] = target: K^L66A C10 mAb mutant (IgG1) (human); assay: BLI
[12] = target: DENV3-paH881 sE protein (aa 1-393) (Dengue virus 3 (strain paH881)); assay: crystal structure
[13] = target: DENV3-paH881 sE protein (aa 1-393) (Dengue virus 3 (strain paH881)); assay: crystal structure; unbound sE
[14] = target: DENV4_Burma/63632/1976 sE protein (aa 1-395) (Dengue virus 4 (strain Burma/63632/1976)); assay: crystal structure
[15] = target: ZIKV-H/PF/2013 sE protein (aa 1-404) (Zika virus (strain H/PF/2013)); assay: crystal structure
[16] = target: ZIKV-H/PF/2013 sE protein (aa 1-404) (Zika virus (strain H/PF/2013)); assay: SEC-MALS; Superdex 200 10/300 GL; Tris 50 mM pH 8.0, NaCl 500 mM; about 150 ug protein; proteins alone and in complex

Substance: C10 bivalent F(ab')2
- Kd [1]: 3.84 nM

Substance: C10 intact bivalent IgG1 (human monoclonal antibody EDE1 C10) L:K66A
- Kd [2]: 259 nM
- Kd [3]: 223 nM
- Kd [4]: 1370 nM
- Kd [5]: 40.3 nM

Substance: C10 monovalent antigen binding fragment (Fab)
- fold difference in EC50 for virion binding, bivalent versus monovalent [6]: 10 fold
- fold difference in EC50 for virion binding, bivalent versus monovalent [7]: 2 logs
- fold difference in EC50 for virion binding, bivalent versus monovalent [8]: 10 fold

Substance: DENV1-FGA/89 sE protein (aa 1-395) (domain or fragment)
- stoichiometry N [9]: 2
- stoichiometry N [10]: 2

Substance: DENV2 A259C (sE)2, disulfide engineered mutant dimer (domain or fragment)
- drop in affinity against wild-type C10 [11]: > 1 log

Substance: DENV3 A257C (sE)2, disulfide engineered mutant dimer (domain or fragment)
- drop in affinity against wild-type C10 [11]: > 1 log

Substance: DENV3-paH881 sE protein (aa 1-393) (domain or fragment)
- stoichiometry N [12]: 2
- stoichiometry N [13]: 2

Substance: DENV4 A259C (sE)2, disulfide engineered mutant dimer (domain or fragment)
- drop in affinity against wild-type C10 [11]: > 1 log

Substance: DENV4_Burma/63632/1976 sE protein (aa 1-395) (domain or fragment)
- stoichiometry N [14]: 2

Substance: ZIKV-H/PF/2013 sE protein (aa 1-404) (domain or fragment)
- stoichiometry N [15]: 2
- stoichiometry N [16]: 2
